Assay results taken from patent US10441607B1, “Multifunctional linker technology containing an N4 group” (priority 2016, dated 2019).

How the values were obtained:
AR42J tumor = assay: PET/CT imaging of AR42J tumor-bearing mice; format: in vivo
Text: PET/CT images (FIG. 6) were taken of AR42J tumor-bearing mice administered ^68Ga-DOTA-TOC (left) and ^68Ga-MMC(5-FU)-TOC (right).

[1] = tested on: SSTR2-expressing IMR-32 cells; assay: Cellular uptake / receptor-mediated binding and octreotide blocking in IMR-32 cells; format: cell-based
Experimental: The cellular uptake of compound 7 was compared to another dual-labeled TOC agent, ^64Cu-DA(NIR)-TOC, which was synthesized by sequential N-terminal functionalization of resin-bound TOC with an azide-containing amino acid and DOTA-NHS, in IMR-32 neuroblastoma cells. Agents (30 nM, 1-2 μCi) were added to vials containing 4 million cells and incubated at 4° C. for 1 hr. […] After washing twice with PBS, the cells were collected and bound radioactivity was measured by a γ counter.

AR42J xenografts = assay: Biodistribution in AR42J xenografts; format: in vivo, mice
[2] = Biodistribution in AR42J xenografts; format: in vivo, mice; details: mouse, all tissues other than tumor and kidneys, read-out: uptake in all locations other than tumor and kidneys

**Q.** For C[C@@H](O)[C@@H]1NC(=O)[C@H](CCCCN)NC(=O)[C@@H](Cc2c[nH]c3ccccc23)NC(=O)[C@H](Cc2ccc(O)cc2)NC(=O)[C@@H](NC(=O)[C@@H](Cc2ccccc2)NC(=O)CN2CCN(CC(=O)O)CCN(C(=O)Cn3cc(F)c(=O)[nH]c3=O)CCN(CC(=O)O)CC2)CSSC[C@@H](C(=O)N[C@H](CO)[C@@H](C)O)NC1=O [^68Ga-MMC(5-FU)-TOC, metal not drawn], which “localization in PET/CT images” value (AR42J tumor) is on record?
**A.** primarily in the tumor, the kidneys, and the bladder

**Q.** And the “binding to IMR-32 cells” value [1]?
**A.** good binding

**Q.** What about the “reduction in binding on blocking with octreotide” value ([1]; 10-fold excess of octreotide) of the same molecule?
**A.** 81.2%

**Q.** And the “reduction in binding on blocking with octreotide” value ([1]; 200-fold excess of octreotide)?
**A.** 94.9%

**Q.** And the “location of the majority of the injected dose” value (AR42J xenografts)?
**A.** either the tumor or kidneys

**Q.** And the tissue uptake [2]?
**A.** < 5 %ID/g
